{"source": "paper PMC2936520", "target": "OsAP2-39 (OsNUE39) (Oryza sativa) (UniProt Q7XPL6)", "sequence (Q7XPL6 entry or part of it)": "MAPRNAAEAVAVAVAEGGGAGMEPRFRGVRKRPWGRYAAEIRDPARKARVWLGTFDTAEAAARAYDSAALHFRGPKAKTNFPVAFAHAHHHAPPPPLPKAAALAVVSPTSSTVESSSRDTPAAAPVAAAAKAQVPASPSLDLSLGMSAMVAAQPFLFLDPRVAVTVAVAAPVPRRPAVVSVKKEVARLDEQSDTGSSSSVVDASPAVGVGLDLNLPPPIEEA", "assay": "EMSA", "conditions": "Invitrogen EMSA kit E33075 per manufacturer; 30 ng protein with 0-400 ng DNA; 4-20% TBE native gel, 200 V, 45 min; buffer, salt, pH and temperature not stated"}
{"sequence": "AGTGTTCTGTTCCCCCGGGGAGATAAACCCCCCCTCCTTGGCAACGATACTACCAAGGTTTCTCATCACCAAGATTGTTTGCATGGGACACAGTAACAAACACCGCAGCCGCCGGCGCCGCAGACATT (double strand) [OsNCED-1 promoter GCC-box fragment]", "values": [{"measurement": "binding", "value": "binds"}]}
